The target of the series is lambda integrase Int-h/218 h/218 mutant (substitutions not given) (Bacteriophage lambda) (UniProt P03700). The series can be described thus: cell_activity. To be noted: CHO-DG44.

For four sequences, activity (% fluorescent cells) results are on record in patent US20110189729.

Take “CTGCTTTTTTATACTAAGTTGGCATTATAAAAAAGCATTGCTTATCAATTTGTTGCAACGAACAGGTCACTATCAGTCAAAATATAATCATTATTTGATTTC / GAAATCAAATAATGATTATATTTTGACTGATAGTGACCTGTTCGTTGCAACAAATTGATAAGCAATGCTTTTTTATAATGCCAACTTAGTATAAAAAAGCAG / GCTGTTACAGGTCACTAATACCATCTATGTAGTTGATTCATATTGTCTGCATATCTTGTGTTTTACAGTATTATCTAGTCTGTTTTTTATCCAAAATCTAATTTATTATATTGATATTTATATCATTTTACGTTTCTCGTTCAGCTTTTTTATACTAACTTG / CAAGTTAGTATAAAAAAGCTGAACGAGAAACGTAAAATGATATAAATATCAATATAATAAATTAGATTTTGGATAAAAAACAGACTAGATAATACTGTAAAACACAAGATATGCAGACAATATGAATCAACTACATAGATGGTATTAGTGACCTGTAACAGC [attL.a ; attR.a]”: the activity (% fluorescent cells) (attL.a x attR.a, with IHF and XIS, PCR verified) came to 2.3.

“CTGCTTTTTTATACTAAGTTGGCATTATAAAAAAGCATTGCTTATCAATTTGTTGCAACGAACAGGTCACTATCAGTCAAAATAAAATCATTATTTGATTTC / GAAATCAAATAATGATTTTATTTTGACTGATAGTGACCTGTTCGTTGCAACAAATTGATAAGCAATGCTTTTTTATAATGCCAACTTAGTATAAAAAAGCAG / TCTGTTACAGGTCACTAATACCATCTAAGTAGTTGATTCATAGTGACTGCATATGTTGTGTTTTACAGTATTATGTAGTCTGTTTTTTATGCAAAATCTAATTTAATATATTGATATTTATATCATTTTACGTTTCTCGTTCAGCTTTTTTATACTAACTTG / CAAGTTAGTATAAAAAAGCTGAACGAGAAACGTAAAATGATATAAATATCAATATATTAAATTAGATTTTGCATAAAAAACAGACTACATAATACTGTAAAACACAACATATGCAGTCACTATGAATCAACTACTTAGATGGTATTAGTGACCTGTAACAGA [attL ; attR]” had an activity (% fluorescent cells) (attL x attR, with IHF and XIS, PCR verified) of 3.2.

As for “GCTGTTACAGGTCACTAATACCATCTACGTAGTTGATTCATATTGTCTGCATATCTTGTGTTTTACAGTATTATCTAGTCTGTTTTTTATCCAAAATCTAATTTATTATATTGATATTTATATCATTTTACGTTTCTCGTTCAGCTTTTTTATACTAAGTTGGCATTATAAAAAAGCATTGCTTATCAATTTGTTGCAACGAACAGGTCACTATCAGTCAAAATATAATCATTATTTGATTTC / GAAATCAAATAATGATTATATTTTGACTGATAGTGACCTGTTCGTTGCAACAAATTGATAAGCAATGCTTTTTTATAATGCCAACTTAGTATAAAAAAGCTGAACGAGAAACGTAAAATGATATAAATATCAATATAATAAATTAGATTTTGGATAAAAAACAGACTAGATAATACTGTAAAACACAAGATATGCAGACAATATGAATCAACTACGTAGATGGTATTAGTGACCTGTAACAGC / CTGCTTTTTTATACTAACTTG / CAAGTTAGTATAAAAAAGCAG [attP.b ; attB]”, under “attP.b x attB, with IHF, 0.3% without IHF plasmid”, the activity (% fluorescent cells) turned out to be 1.2.

Sequence “GCTGTTACAGGTCACTAATACCATCTATGTAGTTGATTCATATTGTCTGCATATCTTGTGTTTTACAGTATTATCTAGTCTGTTTTTTATCCAAAATCTAATTTATTATATTGATATTTATATCATTTTACGTTTCTCGTTCAGCTTTTTTATACTAAGTTGGCATTATAAAAAAGCATTGCTTATCAATTTGTTGCAACGAACAGGTCACTATCAGTCAAAATATAATCATTATTTGATTTC / GAAATCAAATAATGATTATATTTTGACTGATAGTGACCTGTTCGTTGCAACAAATTGATAAGCAATGCTTTTTTATAATGCCAACTTAGTATAAAAAAGCTGAACGAGAAACGTAAAATGATATAAATATCAATATAATAAATTAGATTTTGGATAAAAAACAGACTAGATAATACTGTAAAACACAAGATATGCAGACAATATGAATCAACTACATAGATGGTATTAGTGACCTGTAACAGC / GCTGTTACAGGTCACTAATACCATCTATGTAGTTGATTCATATTGTCTGCATATCTTGTGTTTTACAGTATTATCTAGTCTGTTTTTTATCCAAAATCTAATTTATTATATTGATATTTATATCATTTTACGTTTCTCGTTCAGCTTTTTTATACTAAGTTGGCATTATAAAAAAGCATTGCTTATCAATTTGTTGCAACGAACAGGTCACTATCAGTCAAAATATAATCATTATTTGATTTC / GAAATCAAATAATGATTATATTTTGACTGATAGTGACCTGTTCGTTGCAACAAATTGATAAGCAATGCTTTTTTATAATGCCAACTTAGTATAAAAAAGCTGAACGAGAAACGTAAAATGATATAAATATCAATATAATAAATTAGATTTTGGATAAAAAACAGACTAGATAATACTGTAAAACACAAGATATGCAGACAATATGAATCAACTACATAGATGGTATTAGTGACCTGTAACAGC [attP.a ; attP.a]” gave an activity (% fluorescent cells) (attP.a x attP.a, no IHF plasmid) of 1.9.
